# Experimental data: patent publication US20070207967A1, “Peptide Inhibitors of Matrix Metalloproteinase Activity” (CTT CANCER TARGETING TECHNOLOGIES OY, priority 2004, published 2007)
# Columns and labels:
# MMP-9 C domain = biological target: T1, MMP-9 C domain (Homo sapiens, UniProt P14780); test: CRV phage binding to recombinant MMP-9 C domain; conditions: TIMP-1 2.5 μg/ml
# T1 construct: MMP-9 (Asp^494-Asp^688) were expressed as described (16); made in house; host or cells: E. coli (β5 fragment)
# T1 sequence (P14780 513-707 limits assumed): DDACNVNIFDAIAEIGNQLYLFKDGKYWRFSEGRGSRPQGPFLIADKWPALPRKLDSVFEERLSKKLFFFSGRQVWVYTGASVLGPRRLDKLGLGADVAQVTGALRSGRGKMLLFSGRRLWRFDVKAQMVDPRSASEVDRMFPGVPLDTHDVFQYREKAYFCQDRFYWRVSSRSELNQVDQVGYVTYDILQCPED
# Description: (§1) Phage display. Phage display selections were made using random peptide libraries CX7-10C and X9-10 (13). Purified human pro-MMP-9 (9) or recombinant MMP-9 C domain (2 μg/ml) was immobilized on microtiter wells and the wells were blocked with BSA. The phage were added in 50 mM Hepes (pH 7.5)/5 mM CaCl2/1 μM ZnCl2/150 mM NaCl/2% BSA. After three rounds of selection the phage sequences were determined (14). The phage binding specificity was tested with pro-MMPs or the recombinant domains (20 ng/well). The phage (10^8 transducing units/well) were allowed to bind in the absence or presence of competitor peptides (20 μM), gelatin (2.5 μg/ml) or TIMP-1 (2.5 μg/ml, Calbiochem) followed by washings with PBS/0.05% Tween20 (PBST). The phage were detected with a peroxidase-conjugated anti-phage antibody (Amersham Biosciences).
# Expression of the MMP and integrin domains. CBD (amino acids Gly^204-Gly^373) was amplified from MMP-9 cDNA with the oligonucleotides 5′-[…]-3′ and 5′-[…]-3′ incorporating NdeI and PstI restriction sites. The PCR product was ligated into pTWIN vector (New England Biolabs). CBD was expressed in E. coli and purified using gelatin-sepharose (Amersham Biosciences). For some experiments, CBD was biotinylated with sulfo-NHS-LC-biotin (Pierce). The C-terminal domains of MMP-2 (Glu^438-Cys^631) and MMP-9 (Asp^494-Asp^688) were expressed as described (16). […]
# pro-MMP-9 [1] = biological target: T2, pro-MMP-9 (Homo sapiens, UniProt P14780); test: Phage binding to pro-MMP-9 with competitors; conditions: competitor peptides 20 μM, gelatin 2.5 μg/ml, TIMP-1 2.5 μg/ml
# T2 sequence (P14780 20-707 limits assumed): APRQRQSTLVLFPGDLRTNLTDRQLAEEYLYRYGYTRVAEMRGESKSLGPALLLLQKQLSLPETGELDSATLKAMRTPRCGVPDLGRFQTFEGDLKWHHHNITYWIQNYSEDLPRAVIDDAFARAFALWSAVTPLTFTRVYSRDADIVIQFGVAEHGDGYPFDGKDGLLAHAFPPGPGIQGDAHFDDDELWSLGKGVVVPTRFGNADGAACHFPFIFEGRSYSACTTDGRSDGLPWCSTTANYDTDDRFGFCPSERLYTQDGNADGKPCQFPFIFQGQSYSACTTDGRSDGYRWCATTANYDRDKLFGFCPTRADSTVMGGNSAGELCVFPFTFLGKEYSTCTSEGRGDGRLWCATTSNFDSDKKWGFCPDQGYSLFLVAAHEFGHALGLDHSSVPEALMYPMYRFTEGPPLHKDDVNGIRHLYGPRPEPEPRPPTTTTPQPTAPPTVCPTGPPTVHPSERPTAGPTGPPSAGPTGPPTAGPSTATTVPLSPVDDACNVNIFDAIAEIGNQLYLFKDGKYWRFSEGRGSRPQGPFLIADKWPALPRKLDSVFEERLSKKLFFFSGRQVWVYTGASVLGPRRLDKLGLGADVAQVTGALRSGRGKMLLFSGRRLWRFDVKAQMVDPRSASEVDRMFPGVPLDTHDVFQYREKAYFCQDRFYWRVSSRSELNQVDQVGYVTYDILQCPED
# Description: as §1
# pro-MMP-9 [2] = biological target: T2, pro-MMP-9; test: Pro-MMP-9 activation in THP-1 cells, zymography; assay type: cell-based; conditions: THP-1, pro-MMP-3 and plasminogen, peptides 200 μM
# Description: Activation of MMP-9. THP-1 cells (40 000/100 μl) or confluent HT1080 cells were incubated for 16 h in the presence or absence of 2.5 μg/ml plasminogen, 0.5 μg/ml pro-MMP-3 (Oncogene Research Products), 40 nM PDBu, and the peptides at a 200 μM concentration unless otherwise indicated. Aliquots of the conditioned media were analyzed by gelatin zymography (9). […] The samples were analyzed by gelatin zymography.
# leukocytes = conditions: ref (12); cited from earlier work
# αM integrin I domain [3] = biological target: T3, αM integrin I domain (Homo sapiens, UniProt P11215); test: Pro-MMP-9 binding to αM integrin I domain
# T3 sequence (P11215 150-328 limits assumed): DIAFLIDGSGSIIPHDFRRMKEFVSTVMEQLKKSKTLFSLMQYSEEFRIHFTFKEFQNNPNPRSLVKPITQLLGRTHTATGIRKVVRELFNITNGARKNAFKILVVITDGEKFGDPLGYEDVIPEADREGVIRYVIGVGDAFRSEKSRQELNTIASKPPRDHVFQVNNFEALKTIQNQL
# Description: Pro-MMP-9 and gelatin binding to leukocyte αM integrin. Pro-MMP-9 binding to the αM I domain in the presence of peptides was studied as described (12). Gelatin binding to the pro-MMP-^9/αMβ2 integrin complex was studied by immobilizing the integrin αMβ2 (12) or αIIbβ3 as a control (Enzyme Research Laboratories, South Bend, Ind.) (1 μg/well) in TBS/1 mM CaCl2/1 mM MgCl2 followed by saturation of the wells with 1% BSA in PB ST. Pro-MMP-9 (100 ng/well) was incubated for 2 h and the unbound pro-MMP-9 was washed away. Biotinylated gelatin (2.5 μg/ml) was allowed to bind for 30 min at room temperature. Bound gelatin was detected with streptavidin-peroxidase.
# neutrophil recruitment = conditions: acute inflammation model in mice; ref (48); cited from earlier work
# αM integrin I domain [4] = biological target: T3, αM integrin I domain; conditions: ref (12); cited from earlier work
# [5] = test system: β5 integrin-transfected CS-1 melanoma cells; test: 125I-C domain binding to cells; assay type: cell-based, hamster; conditions: unlabelled proteins 50 μg/ml, peptides 50 μM
# Description: ^125I-C domain binding to cells. The MMP-9 C domain was labelled with ^125I to a specific activity 0.06 μCi/pmol. The labelled domain retained 40% of the CRV peptide-binding activity as shown by the phage-binding assay. […] After a preincubation of 1.5×10^6 cells in a 200 μl volume on ice for 30 min with the competitors, ^125I-labelled C domain (1×10^6 cpm) was added and incubated for three hours on ice. The cells were transferred to tubes containing 200 μl of dibutyl phthalate/cyclohexane mixture (23:2 vol/vol), centrifuged 7500×g for 10 minutes and snap-frozen (24). The bottom of the tube containing the cells were cut and analyzed with a gamma-counter.
substance,measurement,setting,value
TIMP-1: tissue inhibitor of MMPs (Calbiochem),"CRV phage binding to the MMP-9 C domain, competition",MMP-9 C domain,could not compete
same,"Binding of the CRV-phage to pro-MMP-9, competition",pro-MMP-9 [1],could not compete
ADGACILWMDDGWCGAAG,Effect on pro-MMP-9 activation,pro-MMP-9 [2],augmented
same,Inhibition of migration of leukocytes,leukocytes,inhibited migration of leukocytes
same,Effect on interaction of MMP-9 with the leukocyte αM integrin I domain,αM integrin I domain [3],blocked
same,Inhibition of neutrophil recruitment,neutrophil recruitment,active in vivo inhibiting neutrophil recruitment
same,Competition with pro-MMP-9 binding to I domain of αM integrin subunit,αM integrin I domain [4],competed
GRGDSP [reference compound],Competition of 125I-labelled MMP-9 C domain binding to β5 integrin-transfected CS-1 cells,[5],No competition
